Measured values published in US9056102B2, “VEGF-activated trail ligands” (The Regents of the University of California, priority 2005, dated 2015).

Legend:
[1] = test system: U87MG human glioblastoma cells; assay: Potentiation of R2FasL by chemotherapeutic agents, LDH release assay; conditions: 72 hours drug (Bis VIII 1 μM, camptothecin 20 nM, etoposide 5 μM), then R2FasL 10 μL/well for 40 hours
Procedure: To determine if the activity of R2FasL can be potentiated by chemotherapeutic agents, the following experiments were performed. U87MG human glioblastoma cells were plated in 96-well plates in 100 μL of complete medium with 10% fetal calf serum at 25,000 cells/well. Forty-eight hours later cells were treated with either bisindolylmaleimide VIII (Bis VIII, final concentration 1 μM), camptothecin (final concentration 20 nM), etoposide (final concentration 5 μM), or DMSO vehicle (1 μL/well). Bis VIII, camptothecin, and etoposide (all from Biomol) were dissolved in DMSO and added at 1 μL/well. After 72 hours of drug exposure, cells were treated with FLAG antibody affinity-purified R2FasL solution (10 μL/well), and incubated for an additional 40 hours. Cell viability and cytotoxicity were assayed using the resazurin assay and the LDG release assay, respectively, as described above.

[2] = test system: U87MG human glioblastoma cells; assay: Potentiation of R2FasL by chemotherapeutic agents, resazurin cell viability assay; assay type: cell-based; conditions: 72 hours drug (Bis VIII 1 μM, camptothecin 20 nM, etoposide 5 μM), then R2FasL 10 μL/well for 40 hours
[3] = test system: U87MG human glioblastoma cells; assay: LDH release cytotoxicity assay in glioblastoma cells; assay type: cell-based; conditions: FLAG-purified R2FasL solution 0-10 μL/well, 24 hours
Procedure: R2FasL solution (0, 0.01, 0.1, 1, or 10 μL), purified by FLAG epitope tag affinity chromatography, was then added to each well (FIG. 17A). In addition, each well received 300 ng of neutralizing anti-VEGF antibody, neutralizing anti-FasL antibody, or control goat Ig (all from R&S Systems). Twenty-four hours later the cells were assayed for cytotoxicity using the LDH release assay (Roche), in which 10 μL of cell supernatant is mixed with 100 μL LDH reaction mixture in a total reaction volume of 200 μL. Cytotoxicity was assayed spectrophotometrically by measuring absorbance at 492 nm.

[4] = test system: Jurkat E6.1 human T cells; assay: Jurkat cell viability, resazurin (AlamarBlue) assay; assay type: cell-based; conditions: 1 μL/well conditioned medium, rhVEGF-165 or rmVEGF-165 0.001-10 nM, 18 hours
Procedure: Conditioned medium (0.001, 0.01, 0.1, 1, or 10 μL) from Cos7 cells transfected with pFLAG/R1[D2]FasL vector was added in the absence or presence of rhVEGF-165 (final concentration 2 nM). Twenty-two hours later cell viability was assayed using the resazurin assay (AlamarBlue reagent from BioSource). Conversion of AlamarBlue substrate to product by viable cells was determined by adding 20 μL of AlamarBlue to each well and measuring absorbance at 540 nm and […]. Calculation of % conversion of substrate to product was performed according to the manufacturer's protocol.
To investigate which growth factors activate R1[D2]FasL the following experiment was performed. […] All growth factors were used at a final concentration of 10 nM, and were from Peprotech or R&D Systems. Nineteen hours later cell viability was assayed using the resazurin assay as described above.
In a similar experiment, the concentration of the growth factors tested was varied. […] Conditioned medium from Cos7 cells transfected with either pFLAG/R2FasL vector or empty pFLAG vector was added (1 μL/well), in the absence or presence of rhVEGF-165 or rmVEGF-165 at the final concentrations of 0.001, 0.01, 0.1, 1, and 10 nM. Eighteen hours later cell viability was assayed using the resazurin assay as described herein.
To determine the ED50 for hVEGF-165 on R1[D2]FasL the following experiment was performed. […] Conditioned medium from Cos7 cells transfected with pFLAG/R1[D2]FasL vector was added (2 μL/well), in the absence or presence of rhVEGF-165 at 0, 0.01, 0.1, 1, 10, 100, 1,000, or 10,000 nM. Nineteen hours later cell viability was assayed using the resazurin assay as described above.
In a similar experiment the ED50 for hVEGF-165 on R2FasL was determined. […] Conditioned medium from Cos7 cells transfected with pFLAG/R2FasL vector was added in the volumes indicated, in the absence or presence of rhVEGF-165 at the final concentrations of […], 0.2 and 2 nM. Eighteen hours later cell viability was assayed using the resazurin assay. The ED50 for rhVEGF-165 was between 20 pM and 200 pM (FIG. 21B).

[5] = test system: Bovine adrenal cortical endothelial cells; assay: Microvascular endothelial cell cytotoxicity, LDH release assay; assay type: cell-based; conditions: 2 μL/well conditioned medium, with 2 nM rhVEGF-165, 24 hours
Procedure: Twenty-two hours later conditioned medium from Cos7 cells transfected with either pFLAG/R2FasL or empty pFLAG vector was added (2 μL/well), in the absence or presence of rhVEGF-165 (final concentration 2 nM). Twenty-four hours later cytotoxicity was assayed using the LDH release assay as described above.

[6] = test system: DU145 human prostate cancer cells; assay: LDH release cytotoxicity assay in prostate cancer cells; assay type: cell-based; conditions: Cos7 conditioned medium with R2FasL, 34 hours
Procedure: DU145 human prostate cancer cells were plated in 24-well plates in 500 μL of complete medium with 10% fetal calf serum and allowed to grow for 54 hours without change of medium. Conditioned medium from Cos7 cells transfected with either pFLAG/R2FasL or empty pFLAG vector was added in the indicated volumes. After 34 more hours cytotoxicity was assayed using the LDH release assay as described above.

[7] = test system: Human umbilical vein endothelial cells (HUVEC); assay: Macrovascular endothelial cell viability, resazurin assay; assay type: cell-based; conditions: serum-starved, 10 μL/well conditioned medium, with 2 nM rhVEGF-165, 22 hours
Procedure: R2FasL may be differentially active in tumor endothelial cells (microvascular) and less toxic to normal macrovascular endotherlial cells, such as arteries and veins. […] Twenty-four hours later serum starvation was begun (to sensitize cells to death signals) by withdrawing serum. After fifteen hours of serum starvation cells were treated Cos7 cell conditioned medium containing R2FasL (10 μL/well) in the absence or presence of rh VEGF-165 (final concentration 2 nM). After 22 hours of treatment with R2FasL±rhVEGF cell viability was assayed using the resazurin assay as described herein. No effect of R2FasL+VEGF was seen on these macrovascular endothelial cells (FIG. 20A).

[8] = test system: U87MG human glioblastoma cells; assay: Cell death in glioblastoma cells, Trypan blue cell counting; assay type: cell-based; conditions: Cos7 conditioned medium with R2FasL, 36 hours
Procedure: To investigate if R2FasL induces apoptosis in human glioblastoma the following experiment was performed. […] Twenty-four hours later conditioned medium from Cos7 cells transfected with either pFLAG/R2FasL or empty pFLAG vector was added (FIG. 17B). The concentration of R2FasL was determined separately by quantitative immunoblotting using commercially produced rhsFasL as standard (R&S Systems). After 36 more hours, cells were trypsinized, stained with Trypan blue, and counted on a hemocytometer. Data in FIG. 17B are shown as mean±SEM.

[9] = test system: U373 human glioblastoma cells; assay: LDH release cytotoxicity assay in Fas-resistant glioblastoma cells; assay type: cell-based; conditions: Cos7 conditioned medium with R2FasL, 36 hours; cells resistant to Fas receptor-mediated killing
Procedure: To investigate the specificity of the R2FasL activity on U87MG glioblastoma cells, the cytotoxic effect of R2FasL on the U373 glioblastoma cell line, was analyzed. […] Conditioned medium from Cos7 cells transfected with pFLAG/R2FasL vector was added in the indicated volumes. After 36 more hours cytotoxicity was assayed using the LDH release assay as described herein (FIG. 17D).

CC[C@@]1(O)C(=O)OCc2c1cc1n(c2=O)Cc2cc3ccccc3nc2-1 [camptothecin]
potentiation of R2FasL cytotoxic activity (LDH release) [1]: Potentiation of R2FasL cytotoxic activity | potentiation of R2FasL apoptotic activity (cell viability) [2]: Potentiation of R2FasL apoptotic activity

B1: R2FasL: FLAG epitope-tagged VEGFR2/FasL fusion protein expressed from pFLAG/R2FasL; apparently the FLAG-tagged form of FlkFasL (protein)
chain: AASVGLPGDFLHPPKLSTQKDILTILANTTLQITCRGQRDLDWLWPNAQRDSEERVLVTECGGGDSIFCKTLTIPRVVGNDTGAYKCSYRDVDIASTVYVYVRDYRSPFIASVSDQHGIVYITENKNKTVVIPCRGSISNLNVSLCARYPEKRFVPDGNRISWDSEIGFTLPSYMISYAGMVFCEAKINDETYQSIMYIVVVVGYRIYDVILSPPHEIELSAGEKLVLNCTARTELNVGLDFTWHSPPSKSHHKKIVNRDVKPFPGTVAKMFLSTLTIESVTKSDQGEYTCVASSGRMIKRNRTFVRVHTKPFIAFGSARGTSEKKELRKVAHLTGKSNSRSMPLEWEDTYGIVLLSGVKYKKGGLVINETGLYFVYSKVYFRGQSCNNLPLSHKVYMRNSKYPQDLVMMEGKMMSYCTTGQMWARSSYLGAVFNLTSADHLYVNVSELSLVNFEESQTFFGLYKL
modifications: left off: small tags and cut ends
notes: apparently the FLAG-tagged form of FlkFasL
cytotoxicity (LDH release) [3]: induces cytotoxicity | activation by human and mouse VEGF-165 (cell viability) [4]: human and mouse VEGF-165 similarly activate R2FasL | cytotoxicity (LDH release) of R2FasL and VEGF [5]: induce cytotoxicity | cytotoxicity (LDH release) [6]: induces cytotoxicity | effect of R2FasL+VEGF on cell viability [7]: No effect | cell death (cell count) [8]: induces cell death | cytotoxicity (LDH release) [9]: does not induce cytotoxicity
